From publication PMC4739766 (eLife, 2015)

Columns and labels:
RhoA (Homo sapiens) = RhoA (Homo sapiens) (UniProt P61586); conditions: cited from earlier work
[1] = target: human p75^NTR death domain (330–427) (human) (UniProt P08138); assay: SPR; p75NTR DD-His captured on NTA sensor chip via Ni2+; BIAcore T200, 22°C; 10 mM HEPES, 50 mM NaCl, 0.005% Surfactant P20, 0.02% BSA, pH 7.0; kinetic analysis, one binding site model
[2] = target: T1, human p75^NTR death domain (330–427) (human), P08138; assay: dynamic light scattering; p75NTR DD ~0.2 mM in phosphate buffer, pH 7.0, 22°C; apparent hydrodynamic radius; conditions: remark: other sources report otherwise
T1 chain: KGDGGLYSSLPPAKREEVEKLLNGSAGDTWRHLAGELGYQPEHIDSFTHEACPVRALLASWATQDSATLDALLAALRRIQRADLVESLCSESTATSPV

human RhoGDI (2–204) = target: T2, human RhoGDI (2–204) (human, UniProt P52565 2-204); assay: SPR; p75NTR DD-His captured on NTA sensor chip via Ni2+; BIAcore T200, 22°C; 10 mM HEPES, 50 mM NaCl, 0.005% Surfactant P20, 0.02% BSA, pH 7.0; kinetic analysis, one binding site model; conditions: both partners purified
T2 construct: 15N- or 13C,15N-labelled in some NMR samples; source: E. coli SoluBL21 (DE3), purified (Ni-NTA, gel filtration Superdex 75 and/or ion exchange)
T2 sequence (looked up): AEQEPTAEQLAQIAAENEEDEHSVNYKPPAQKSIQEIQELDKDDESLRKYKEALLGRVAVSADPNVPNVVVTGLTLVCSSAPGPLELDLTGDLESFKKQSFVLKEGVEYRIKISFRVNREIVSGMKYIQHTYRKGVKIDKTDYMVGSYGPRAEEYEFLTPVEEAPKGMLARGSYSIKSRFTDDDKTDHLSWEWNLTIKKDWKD

[3] = target: T3, human RIP2 CARD (434–539) (human, UniProt O43353 434-539); assay: as above; conditions: both partners purified
T3 construct: RIP2 kinase, human, caspase recruitment domain with C-terminal tail, residues 434-539; The results speak of a C-terminal tail Leu524-Met540 and of 107 amino acids, the methods of residues 434-539; also called RIP2 CARD (including C-terminal tail); source: E. coli SoluBL21 (DE3), purified (Ni-NTA, gel filtration Superdex 75 and/or ion exchange)
T3 sequence (O43353 434-539): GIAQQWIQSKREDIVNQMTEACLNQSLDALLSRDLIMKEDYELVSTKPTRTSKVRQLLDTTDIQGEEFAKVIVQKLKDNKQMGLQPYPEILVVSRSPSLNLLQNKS

[4] = target: T4, p75^NTR DD tagged with EGFP(A206K) in its C-terminus (human); assay: FRET or BRET; homo-FRET fluorescence anisotropy of p75NTR DD-EGFP diluted serially in 50 mM phosphate buffer pH 7.0, room temperature; fit to a monomer-dimer equilibrium; apparent; dimer to monomers; conditions: remark: other sources report otherwise
T4 chain: T1 chain

RhoA (Homo sapiens), sequence (P61586 1-190): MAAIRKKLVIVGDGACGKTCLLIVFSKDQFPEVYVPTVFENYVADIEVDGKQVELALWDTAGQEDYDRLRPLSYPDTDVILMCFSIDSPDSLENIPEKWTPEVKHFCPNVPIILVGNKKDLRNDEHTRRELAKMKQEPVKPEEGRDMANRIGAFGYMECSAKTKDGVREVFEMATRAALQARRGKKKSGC

RhoGDI (from UniProt P52565)
Kd (RhoA (Homo sapiens)): 170 nM

RIP2 CARD ΔC mutant lacking the C-terminal tail (domain or fragment)
Kd [1]: 58.7 nM

B1: human p75^NTR death domain (330–427), P08138 330-427 (domain or fragment)
chain: T1 chain
stoichiometry N [2]: 2

B2: human p75^NTR death domain (330–427) (domain or fragment, UniProt P08138 330-427, looked up)
chain: T1 chain
notes: p75 neurotrophin receptor (NGFR, TNFRSF16), human, death domain, residues 330-427; 15N- or 13C,15N-labelled in some NMR samples; Monomer or dimer depending on the buffer; also called p75^NTR DD; DD; source: E. coli SoluBL21 (DE3), purified (Ni-NTA, gel filtration Superdex 75 and/or ion exchange)
Kd (human RhoGDI (2–204)): 827 ± 338 nM | koff (human RhoGDI (2–204)): 0.05 s⁻¹ | kon (human RhoGDI (2–204)): 60000 ± 10000 M⁻¹ s⁻¹ | Kd [3]: 4.67 ± 0.7 nM | koff [3]: 0.00332 s⁻¹ | kon [3]: 720000 ± 340000 M⁻¹ s⁻¹

B3: p75^NTR DD tagged with EGFP(A206K) in its C-terminus (domain or fragment)
chain: T1 chain
modifications: here or on the partner: C-terminal EGFP(A206K) carrier left out; limits of this fusion are not given, so the paper's own DD construct (330-427) is used / C-terminal EGFP(A206K) carrier left out; limits of this fusion are n
Kd [4]: 49000 nM
